The values below come from PMC12368060 (Communications Biology, 2025).

Square brackets hold non-standard residues; d marks the D form. Ends that are not written are not given here. * marks the point of attachment. FITC = O=C1OC2(c3ccc(O)cc3Oc3cc(O)ccc32)c2ccc(NC(=S)*)cc21; pS = N[C@@H](COP(=O)(O)O)C(=O)O; Ahx = NCCCCCC(=O)O Some results are limits rather than exact numbers.

The target of experiment [1] is T1, GST-fused LC3B (UniProt Q9GZQ8 1-120). As to the kind of experiment: microfluidic diffusional sizing.
Experiment [2] has as its target T1, GST-fused LC3B. As to the kind of experiment: SPR. For orientation: SPR reads the build-up and loss of mass on a sensor chip optically.

As usually defined, the Kd is the concentration at which binding is half-saturated. Read a low Kd as tighter binding. Usually stoichiometry N stands for the number of molecules, sites or subunits per partner or assembly. The term koff denotes the rate constant with which the complex falls apart. Lower therefore signals a long-lived complex. For orientation: kon means a measure of how fast the partners come together. The low end stands for slower complex formation, the high end for faster complex formation. Consider {FITC-Ahx}-NSSGSSED[pS]FVEIRMAE [FITC-Ahx OPTN LIR peptide 169-185 (pS177)], for which, in the experiment with GST-fused LC3B [1], the affinity, expressed as Kd, was 14.9 µM and the “stoichiometry N” value was 1. In the experiment with GST-fused LC3B [2], this molecule returned a Kd of 21.2 µM, a koff of 0.377 s⁻¹ and a kon of 17800 M⁻¹ s⁻¹.
The corresponding values for {FITC-Ahx}-NSSGSSEDSFVEIRMAE [FITC-Ahx OPTN LIR peptide 169-185 (WT)] are 67.1 µM, 1, 63.5 µM, 0.0351 s⁻¹ and 550 M⁻¹ s⁻¹.
In the case of {FITC-Ahx}-NSSGSSED[pS]WVEIRMAE [FITC-Ahx OPTN LIR peptide 169-185 (pS177 F178W)], in the experiment with GST-fused LC3B [1], the “fold increase in binding affinity against pS177 alone” value came out at 7 fold and the “stoichiometry N” value was 1.
On to {FITC-Ahx}-NSSGSSEDSWVEIRMAE [FITC-Ahx OPTN LIR peptide 169-185 (F178W)], for which, in the experiment with GST-fused LC3B [1], the Kd stood at 19.1 µM and the “stoichiometry N” value came to 1.
In the same order, the values of {FITC-Ahx}-NSSGSSEDDFVEIRMAE [FITC-Ahx OPTN LIR peptide 169-185 (S177D)] are 36.7 µM and 1.
Consider {FITC-Ahx}-NSSGSSED[pS]AVEIRMAE [FITC-Ahx OPTN LIR peptide 169-185 (pS177 F178A)], for which the “fold increase in Kd against pS177 alone” value with GST-fused LC3B [1] came out at 7 fold. Moreover, in the experiment with GST-fused LC3B [2], the equilibrium dissociation constant (Kd) was > 100 µM.
In the case of {FITC-Ahx}-NSSGSSED[pS]FVEIRAAE [FITC-Ahx OPTN LIR peptide 169-185 (pS177 M183A)], the “stoichiometry N” value with GST-fused LC3B [1] was 1. The molecule further registered a Kd with GST-fused LC3B [2] of 36.7 µM.
Regarding {FITC-Ahx}-NSSGSSEDEFVEIRMAE [FITC-Ahx OPTN LIR peptide 169-185 (S177E)], in the experiment with GST-fused LC3B [1], the affinity, expressed as Kd, was 40.2 µM and the “stoichiometry N” value amounted to 1.
